For orientation: kcat/Km means the second-order rate constant that governs catalysis at low substrate concentration.

This note sets out measurements from article PMC4710668, “Bioactivation of food genotoxicants 5-hydroxymethylfurfural and furfuryl alcohol by sulfotransferases from human, mouse and rat: a comparative study” (Archives of Toxicology, 2014).

What all share (experiment): HMF sulfoconjugation assay
Common to all, as to details: other: catalytic efficiency of HMF sulfoconjugation; pH 7.4

Substrate in data set [1]: O=Cc1ccc(CO)o1
Type of data set: biochemical, human. The method, then:
Cytosolic fractions containing individual SULT forms were prepared from transgenic S. typhimurium TA1538. Table S1 in the Supplementary Material provides a summary of the thirty SULTs used in the current study together with references describing the cloning of the respective S. typhimurium TA1538 strains. The expressed SULT forms are denoted with the prefixes h, m and r for human, mouse and rat enzymes, respectively. Bacteria were grown in Luria Broth medium containing ampicillin (100 µg/ml) by stirring for 8 h at 200 revolutions/min at 37 °C. The bacterial suspensions were centrifuged at 5,000 g for 10 min. The sediments were washed twice with 25 ml of 10 mM potassium phosphate buffer (pH 7.4)/50 mM potassium chloride (KCP buffer) and centrifuged again. The pellets were taken up in 800 µl KCP buffer and sonicated thrice for 15 s with 30 s pauses in between. The soluble fraction was attained by centrifuging for 1 h at 100,000 g. The supernatants (in the following termed cytosolic preparations) were frozen at −80 °C. The protein concentrations were determined according to a bicinchoninic acid (BCA) assay protocol. The SULT concentrations in the cytosolic preparations were estimated after electrophoretic separation and immunodetection using inclusion bodies of different SULT forms as standards (Teubner et al. [2007]). The preparation of SULT inclusion bodies and the immunodetection of SULTs is described in the Supplementary Material, which also contains a representative immunoblot of different amounts of rSult1a1standard and a cytosolic preparation of S. typhimurium expressing rSult1a1 (Fig. S1).
(§1) The reactions were conducted in mixtures of 100 µl containing 25–200 µg protein, 50 mM potassium phosphate buffer (pH 7.4), 5 mM MgCl2, 50 µM PAPS and different concentrations of HMF at 37 °C. Preliminary experiments ensured that measurements were recorded under ‘linear’ conditions, i.e., doubling of protein concentration or incubation time was doubling the amount of sulfate ester formed. […]
SMF concentrations of the clear supernatants were analyzed by UPLC-MS/MS. The protocol was adapted from the quantification of SMF in plasma samples of HMF-treated mice (Monien et al. [2009]). In short, the supernatants were analyzed using a UPLC system (Waters) connected to a Quattro Premier XE tandem quadrupole mass spectrometer (Waters) using the negative electrospray ionization mode. […] The fragmentation reactions of SMF yielding two principal ions, the sulfate ion radical (m/z = 204.9 → 96.0) and the protonated sulfonate ion (m/z = 204.9 → 81.0) were monitored. […] SMF was quantified using an external calibration line that was linear in the concentration range of 1.0 nM (4 fmol/injection) to 2,500 (10 pmol/injection) SMF (r ^2 ≥ 0.99). […]

Substrate in data set [2]: O=Cc1ccc(CO)o1
Type of data set: biochemical, mouse. The method, then: (§2) Cytosolic fractions containing individual SULT forms were prepared from transgenic S. typhimurium TA1538. Table S1 in the Supplementary Material provides a summary of the thirty SULTs used in the current study together with references describing the cloning of the respective S. typhimurium TA1538 strains. The expressed SULT forms are denoted with the prefixes h, m and r for human, mouse and rat enzymes, respectively. Bacteria were grown in Luria Broth medium containing ampicillin (100 µg/ml) by stirring for 8 h at 200 revolutions/min at 37 °C. The bacterial suspensions were centrifuged at 5,000 g for 10 min. […] The protein concentrations were determined according to a bicinchoninic acid (BCA) assay protocol. […]
as §1
(§3) SMF concentrations of the clear supernatants were analyzed by UPLC-MS/MS. The protocol was adapted from the quantification of SMF in plasma samples of HMF-treated mice (Monien et al. [2009]). […]

Substrate in data set [3]: O=Cc1ccc(CO)o1
The format is biochemical, rat. The method, then:
as §2, §1, §3

B1: hSULT1A1 (Homo sapiens) (protein)
chain: MELIQDTSRPPLEYVKGVPLIKYFAEALGPLQSFQARPDDLLISTYPKSGTTWVSQILDMIYQGGDLEKCHRAPIFMRVPFLEFKAPGIPSGMETLKDTPAPRLLKTHLPLALLPQTLLDQKVKVVYVARNAKDVAVSYYHFYHMAKVHPEPGTWDSFLEKFMVGEVSYGSWYQHVQEWWELSRTHPVLYLFYEDMKENPKREIQKILEFVGRSLPEETVDFVVQHTSFKEMKKNPMTNYTTVPQEFMDHSISPFMRKGMAGDWKTTFTVAQNERFDADYAEKMAGCSLSFRSEL
notes: made in house; host or cells: Salmonella typhimurium TA1538 (cytosolic fraction, not purified)
Take B1: the kcat/Km in data set [1] came to 13.7 M⁻¹ s⁻¹.

B2: mSult1a1 (Mus musculus) (protein)
chain: MEPLRKPLVPVKGIPLIKYFAETMEQLQNFTAWPDDVLISTYPKSGTNWMSEIMDMIYQGGKLDKCGRAPVYARIPFLEFSCPGVPPGLETLKETPAPRIIKTHLPLSLLPQSLLDQKIKVIYVARNAKDVVVSYYNFYKMAKLHPDPGTWESFLENFMDGKVSYGSWYQHVKEWWELRRTHPVLYLFYEDMKENPKREIKKILEFLGRSLPEETVDLIVHHTSFKKMKENPMANYTTIPTEVMDHTIYPFMRKGTIGDWKNTFTVAQSEHFDAHYAKLMTGCDFTFRCQI
notes: made in house; host or cells: Salmonella typhimurium TA1538 (cytosolic fraction, enzyme not purified)
Turning to B2, in data set [2], the specificity constant (kcat/Km) was found to be 15.8 M⁻¹ s⁻¹.

B3: hSULT1C2 (Homo sapiens) (protein)
chain: MALHDMEDFTFDGTKRLSVNYVKGILQPTDTCDIWDKIWNFQAKPDDLLISTYPKAGTTWTQEIVELIQNEGDVEKSKRAPTHQRFPFLEMKIPSLGSGLEQAHAMPSPRILKTHLPFHLLPPSLLEKNCKIIYVARNPKDNMVSYYHFQRMNKALPAPGTWEEYFETFLAGKVCWGSWHEHVKGWWEAKDKHRILYLFYEDMKKNPKHEIQKLAEFIGKKLDDKVLDKIVHYTSFDVMKQNPMANYSSIPAEIMDHSISPFMRKGAVGDWKKHFTVAQNERFDEDYKKKMTDTRLTFHFQF
notes: as for B1
As for B3, the kcat/Km in data set [1] came out at 0.73 M⁻¹ s⁻¹.

B4: hSULT1A3 (Homo sapiens) (protein)
chain: MELIQDTSRPPLEYVKGVPLIKYFAEALGPLQSFQARPDDLLINTYPKSGTTWVSQILDMIYQGGDLEKCNRAPIYVRVPFLEVNDPGEPSGLETLKDTPPPRLIKSHLPLALLPQTLLDQKVKVVYVARNPKDVAVSYYHFHRMEKAHPEPGTWDSFLEKFMAGEVSYGSWYQHVQEWWELSRTHPVLYLFYEDMKENPKREIQKILEFVGRSLPEETMDFMVQHTSFKEMKKNPMTNYTTVPQELMDHSISPFMRKGMAGDWKTTFTVAQNERFDADYAEKMAGCSLSFRSEL
notes: as for B1
Take B4: the kcat/Km in data set [1] was 0.26 M⁻¹ s⁻¹.

B5: rSult1a1 (Rattus norvegicus) (protein)
chain: MEFSRPPLVHVKGIPLIKYFAETIGPLQNFTAWPDDLLISTYPKSGTTWMSEILDMIYQGGKLEKCGRAPIYARVPFLEFKCPGVPSGLETLEETPAPRLLKTHLPLSLLPQSLLDQKVKVIYIARNAKDVVVSYYNFYNMAKLHPDPGTWDSFLENFMDGEVSYGSWYQHVKEWWELRHTHPVLYLFYEDIKENPKREIKKILEFLGRSLPEETVDSIVHHTSFKKMKENCMTNYTTIPTEIMDHNVSPFMRKGTTGDWKNTFTVAQNERFDAHYAKTMTDCDFKFRCEL
notes: as for B2
With B5, the kcat/Km in data set [3] came out at 5.3 M⁻¹ s⁻¹.

B6: mSult1d1 (Mus musculus) (protein)
chain: MDNKLDVFRRELVDVEGIPLFWSIAEHWSQVESFEARPDDILISTYPKSGTTWVSEILDLIYNNGDAEKCKRDAIYKRVPFMELIIPGITNGVEMLNNMPSPRIVKTHLPVQLLPSSFWKNDCKIIYVARNAKDVVVSYYYFYQMAKIHPEPGTWEEFLEKFMAGQVSFGPWYDHVKSWWEKRKEYRILYLFYEDMKENPKCEIQKILKFLEKDIPEEILNKILYHSSFSVMKENPSANYTTMMKEEMDHSVSPFMRKGISGDWKNQFTVAQYEKFEEDYVKKMEDSTLKFRSEI
notes: as for B2
Consider B6, for which the kcat/Km in data set [2] was 4.8 M⁻¹ s⁻¹.

B7: hSULT1A2 (Homo sapiens) (protein)
chain: MELIQDISRPPLEYVKGVPLIKYFAEALGPLQSFQARPDDLLISTYPKSGTTWVSQILDMIYQGGDLEKCHRAPIFMRVPFLEFKVPGIPSGMETLKNTPAPRLLKTHLPLALLPQTLLDQKVKVVYVARNAKDVAVSYYHFYHMAKVYPHPGTWESFLEKFMAGEVSYGSWYQHVQEWWELSRTHPVLYLFYEDMKENPKREIQKILEFVGRSLPEETVDLMVEHTSFKEMKKNPMTNYTTVRREFMDHSISPFMRKGMAGDWKTTFTVAQNERFDADYAKKMAGCSLSFRSEL
notes: as for B1
Turning to B7, the kcat/Km in data set [1] stood at 0.71 M⁻¹ s⁻¹.

B8: rSult1c1 (Rattus norvegicus) (protein)
chain: MSLEKMKDLHLGEQDLQPETREVNGILMSKLMSDNWDKIWNFQAKPDDLLIATYAKAGTTWTQEIVDMIQNDGDVQKCQRANTYDRHPFIEWTLPSPLNSGLDLANKMPSPRTLKTHLPVHMLPPSFWKENSKIIYVARNAKDCLVSYYYFSRMNKMLPDPGTLGEYIEQFKAGKVLWGSWYDHVKGWWDVKDQHRILYLFYEDMKEDPKREIKKIAKFLEKDISEEVLNKIIYHTSFDVMKENPMANYTTLPSSIMDHSISPFMRKGMPGDWKNYFTVAQSEDFDEDYRRKMAGSNITFRTEI
notes: as for B2
Turning to B8, the kcat/Km in data set [3] is 0.12 M⁻¹ s⁻¹.
